Consider one molecule from publication PMC9785488, “EBF1 Negatively Regulates Brassinosteroid-Induced Apical Hook Development and Cell Elongation through Promoting BZR1 Degradation” (International Journal of Molecular Sciences, 2022).

In this assay the target is T1, MBP-EBF1 (Arabidopsis thaliana, UniProt Q9SKK0 1-628).
T1 construct: EBF1, Arabidopsis thaliana, AT2G25490; source: purified using amylose resin
T1 sequence (looked up): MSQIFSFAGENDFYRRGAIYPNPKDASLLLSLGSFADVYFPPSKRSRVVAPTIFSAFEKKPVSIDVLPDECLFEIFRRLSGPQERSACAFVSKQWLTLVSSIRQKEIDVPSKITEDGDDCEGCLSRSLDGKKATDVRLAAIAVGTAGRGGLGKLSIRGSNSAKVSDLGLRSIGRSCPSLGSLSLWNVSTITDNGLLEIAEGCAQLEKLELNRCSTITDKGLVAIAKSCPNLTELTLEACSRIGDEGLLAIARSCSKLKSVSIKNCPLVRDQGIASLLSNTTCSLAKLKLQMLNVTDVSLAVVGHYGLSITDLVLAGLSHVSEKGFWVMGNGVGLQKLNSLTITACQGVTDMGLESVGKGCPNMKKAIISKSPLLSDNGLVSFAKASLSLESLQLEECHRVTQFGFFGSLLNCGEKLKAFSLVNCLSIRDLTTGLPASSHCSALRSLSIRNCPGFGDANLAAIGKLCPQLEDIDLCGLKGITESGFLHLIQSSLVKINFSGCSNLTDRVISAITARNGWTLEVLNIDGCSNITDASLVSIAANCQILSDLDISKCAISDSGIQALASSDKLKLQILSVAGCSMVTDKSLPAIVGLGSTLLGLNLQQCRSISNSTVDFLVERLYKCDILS
The assay can be described thus: pull-down; glutathione beads with 1 µg GST-BZR1 incubated with 1 µg MBP or MBP-EBF1; 20 mM Tris-HCl pH 7.5, 100 mM NaCl, 1 mM EDTA; washed 10 times with 300 mM NaCl, 0.5% Triton X-100; immunoblot with anti-MBP. The conditions noted are these: both partners purified. (In general: In western blotting, separated proteins are transferred to a membrane and probed.)

B1: GST-BZR1 (natural protein, Arabidopsis thaliana, UniProt Q8S307 1-336, looked up)
chain: MTSDGATSTSAAAAAAAAAAARRKPSWRERENNRRRERRRRAVAAKIYTGLRAQGDYNLPKHCDNNEVLKALCVEAGWVVEEDGTTYRKGCKPLPGEIAGTSSRVTPYSSQNQSPLSSAFQSPIPSYQVSPSSSSFPSPSRGEPNNNMSSTFFPFLRNGGIPSSLPSLRISNSCPVTPPVSSPTSKNPKPLPNWESIAKQSMAIAKQSMASFNYPFYAVSAPASPTHRHQFHTPATIPECDESDSSTVDSGHWISFQKFAQQQPFSASMVPTSPTFNLVKPAPQQMSPNTAAFQEIGQSSEFKFENSQVKPWEGERIHDVGMEDLELTLGNGKARG
notes: BZR1, Arabidopsis thaliana, At1G75080; also called glutathione S-transferase (GST) fusion protein GST-BZR1; source: bacteria, purified (glutathione beads)
Turning to B1, the binding result is recorded as “binds”.
